Assay results from US20180140737A1, “HAEMOSTATIC MATERIAL” (HAEMOSTATIX LIMITED, priority 2015, published 2018).

Assays:
fibrinogen [1] = molecular target: T1, fibrinogen (Homo sapiens, UniProt P02675+P02679); conditions: cited from earlier work
T1 sequence (P02679 27-453): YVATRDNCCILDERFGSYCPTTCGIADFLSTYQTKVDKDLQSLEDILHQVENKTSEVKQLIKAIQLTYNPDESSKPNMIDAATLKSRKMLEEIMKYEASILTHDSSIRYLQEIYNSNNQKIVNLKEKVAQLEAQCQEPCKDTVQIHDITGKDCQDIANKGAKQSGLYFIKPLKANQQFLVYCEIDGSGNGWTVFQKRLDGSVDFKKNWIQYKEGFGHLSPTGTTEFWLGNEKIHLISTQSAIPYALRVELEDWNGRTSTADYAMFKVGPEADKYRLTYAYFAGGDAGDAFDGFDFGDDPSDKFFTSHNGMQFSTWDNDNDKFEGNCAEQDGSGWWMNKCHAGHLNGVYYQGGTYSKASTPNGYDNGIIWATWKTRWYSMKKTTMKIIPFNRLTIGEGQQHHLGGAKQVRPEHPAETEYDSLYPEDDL
T1 sequence (P02675 31-491): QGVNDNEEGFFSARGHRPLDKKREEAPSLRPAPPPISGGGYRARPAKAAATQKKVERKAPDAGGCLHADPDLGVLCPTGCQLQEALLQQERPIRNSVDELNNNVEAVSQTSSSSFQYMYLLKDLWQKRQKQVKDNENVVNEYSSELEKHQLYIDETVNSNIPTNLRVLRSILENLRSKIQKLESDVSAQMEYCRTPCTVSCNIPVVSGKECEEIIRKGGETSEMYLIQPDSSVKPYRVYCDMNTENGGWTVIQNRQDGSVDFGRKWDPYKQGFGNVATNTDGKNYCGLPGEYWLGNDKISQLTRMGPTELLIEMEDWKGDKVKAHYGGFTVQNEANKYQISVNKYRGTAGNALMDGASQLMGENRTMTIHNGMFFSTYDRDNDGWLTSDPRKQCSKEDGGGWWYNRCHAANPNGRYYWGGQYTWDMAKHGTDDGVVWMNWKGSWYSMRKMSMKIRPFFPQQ
T1 sequence (P02671 20-629 partner limits assumed): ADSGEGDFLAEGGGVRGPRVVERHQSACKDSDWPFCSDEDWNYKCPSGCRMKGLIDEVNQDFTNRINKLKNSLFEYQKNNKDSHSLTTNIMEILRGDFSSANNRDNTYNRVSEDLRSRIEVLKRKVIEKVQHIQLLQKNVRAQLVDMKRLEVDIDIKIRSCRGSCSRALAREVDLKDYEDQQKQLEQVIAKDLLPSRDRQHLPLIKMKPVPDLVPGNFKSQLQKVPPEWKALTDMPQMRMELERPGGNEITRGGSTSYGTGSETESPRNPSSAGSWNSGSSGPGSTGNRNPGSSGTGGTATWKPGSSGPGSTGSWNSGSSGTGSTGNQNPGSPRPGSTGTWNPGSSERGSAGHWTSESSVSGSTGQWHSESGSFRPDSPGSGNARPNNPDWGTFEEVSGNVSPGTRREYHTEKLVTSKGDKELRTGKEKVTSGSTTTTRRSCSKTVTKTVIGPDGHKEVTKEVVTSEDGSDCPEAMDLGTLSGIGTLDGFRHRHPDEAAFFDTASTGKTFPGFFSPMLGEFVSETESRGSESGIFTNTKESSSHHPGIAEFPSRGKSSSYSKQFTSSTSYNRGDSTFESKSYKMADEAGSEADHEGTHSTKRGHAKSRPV

[2] = molecular target: T2, fibrinogen in human plasma (Homo sapiens, UniProt P02675+P02679); assay: Polymerisation of fibrinogen in human plasma (KC4 Delta coagulation analyzer); format: biochemical; conditions: 30 μL dendrimer 0.25 mg/ml added to 100 μL human plasma, 37° C
T2 construct: from tissue; host or cells: human plasma
T2 sequence (P02679 27-453): T1 sequence (P02679 27-453)
T2 sequence (P02675 31-491): T1 sequence (P02675 31-491)
T2 sequence (P02671 20-629 partner limits assumed): T1 sequence (P02671 20-629 partner limits assumed)
Procedure: The ability of several different peptide dendrimers (Nos. 4, 5, 8, 9, 10, 11, 12, 13) to polymerise fibrinogen in human plasma was tested.
30 μL of each dendrimer (at a concentration of 0.25 mg/ml) was added to 100 μL human plasma at 37° C., and polymerisation of fibrinogen was determined using a Sigma Amelung KC4 Delta coagulation analyzer.

[3] = molecular target: T3, purified human fibrinogen (Homo sapiens, UniProt P02675+P02679); assay: Co-polymerisation with purified human fibrinogen, clotting time (Sigma Amelung KC4 Delta coagulation analyser); format: biochemical
T3 sequence (P02679 27-453): T1 sequence (P02679 27-453)
T3 sequence (P02675 31-491): T1 sequence (P02675 31-491)
T3 sequence (P02671 20-629 partner limits assumed): T1 sequence (P02671 20-629 partner limits assumed)
Procedure: The ability of Peptide Dendrimer No. 12 to polymerise fibrinogen was assessed. 30 μl of dendrimer in solution, at concentration ranging from 0.005-2 mg/ml, was added to 100 μl purified human fibrinogen at 3 mg/ml (the level of fibrinogen found in the blood). Polymerisation of fibrinogen was analysed using a Sigma Amelung KC4 Delta coagulation analyser.
The ability of Peptide Dendrimer Nos. 4, 5, 10, 11, and 12 to copolymerise with fibrinogen was assessed using the same method described in Example 11. The concentration of each dendrimer was varied from 0.005-0.5 mg/ml.
The ability of the dendrimers to copolymerise with fibrinogen was assessed using the same method described in Example 11, for a concentration of each dendrimer ranging from 0.005-0.5mg/ml.
The ability of the dendrimers to copolymerise with fibrinogen was assessed using the same method described in Example 11, for a concentration of each dendrimer ranging from 0.005-0.5 mg/ml.
Peptide Conjugate No. 1 or 2 (2 mg/ml) was mixed with Peptide Dendrimer No. 3 or 4, and fibrinogen, and the ability of the mixtures to copolymerise with fibrinogen was assessed using the same method described in Example 11, for a concentration of each dendrimer ranging from 0.025-0.5 mg/ml.

fibrinogen [4] = molecular target: T1, fibrinogen; assay: Clotting activity of dendrimer extracted from gamma-irradiated gelatin paste; format: biochemical; conditions: paste with SURGIFLO, extract about 0.25 mg/ml, fibrinogen 3 mg/ml, 37° C
Procedure: 2 ml of solution of Peptide Dendrimer No. 12 or 13 was mixed with SURGIFLO Haemostatic Matrix (a hydrated flowable gelatin matrix) to form a paste of each peptide. Each paste was sterilised by irradiation with ^60Co gamma rays at a dose of 30 kGy, and then stored at room temperature. Samples of the sterilised pastes were used for testing after storage for two and four weeks.
After storage, peptide dendrimers were extracted from each paste using 10 mM HEPES buffer. 30 μL of each extract (with a peptide concentration of about 0.25 mg/ml) was added to 100 μL of human fibrinogen at 3 mg/ml, and the ability of each dendrimer to polymerise fibrinogen (the ‘clotting’ activity) at 37° C. was determined using a Sigma Amelung KC4 Delta coagulation analyser. The polymerisation activity of non-irradiated control samples was also determined.

Question: Which “binding preference for hole 'a' / hole 'b' of fibrinogen” value (fibrinogen [1]) does the source give for GHRPY here?
Answer: binds strongly and preferentially to the ‘b’ hole of fibrinogen

Question: For GPRPFPA, which “binding preference for hole 'a' / hole 'b' of fibrinogen” value (fibrinogen [1]) is on record?
Answer: binds with high preference for hole ‘a’ in fibrinogen

Question: Which “binding preference for hole 'a' / hole 'b' of fibrinogen” value (fibrinogen [1]) does the source give for GPRPG here?
Answer: binds to hole ‘a’ and hole ‘b’ of fibrinogen, but with some preference for hole ‘a’

Question: For GPRP, which “binding preference for hole 'a' / hole 'b' of fibrinogen” value (fibrinogen [1]) is on record?
Answer: binds strongly and preferentially to the ‘a’ hole of fibrinogen

Question: For “Peptide Dendrimer No. 12 (peptide GPRPG; chain KKKKK)”, which “ability to polymerise fibrinogen in human plasma” value [2] is on record?
Answer: able to polymerise fibrinogen in human plasma

Question: What about the clotting time [2] of the same substance?
Answer: less than one second

Question: And the “ability to copolymerise with fibrinogen” value ([3]; dendrimer 0.005-2 mg/ml, fibrinogen 3 mg/ml)?
Answer: able to copolymerise with fibrinogen almost instantaneously

Question: And the clotting ([3]; dendrimer in the range ~0.02-0.5 mg/ml)?
Answer: almost instantaneous clotting

Question: And the “Clotting activity (seconds), Storage for 2 weeks post irradiation” value (fibrinogen [4]; 30 kGy gamma, 2 weeks room temperature)?
Answer: 1 s

Question: And the “Clotting activity (seconds), Storage for 4 weeks post irradiation” value (fibrinogen [4]; 30 kGy gamma, 4 weeks room temperature)?
Answer: 1 s

Question: What about the “Clotting activity (seconds), Non-irradiated control” value (fibrinogen [4]; not irradiated) of the same substance?
Answer: 1 s
